According to PMC12749989, “Conformational plasticity across phylogenetic clusters of RND multidrug efflux pumps and its impact on substrate specificity” (Nature Communications, 2025):

Legend:
[1] = biological target: K. pneumoniae OqxB (Klebsiella pneumoniae); assay: cryo-EM structure; single-particle cryo-EM of AcrB or OqxB reconstituted in detergent-free salipro nanodiscs (saposinA, E. coli total lipids), 20 mM Tris pH 7.5, 150 mM NaCl
[2] = biological target: K. pneumoniae OqxB (Klebsiella pneumoniae); assay: crystal structure; detergent-solubilised (DDM) OqxB; sitting drop, 25 °C, 12% PEG4000, 0.2 M MgCl2, 100 mM ADA pH 6.5
[3] = biological target: the molecule itself; assay: cryo-EM structure; single-particle cryo-EM of DDM-solubilised AcrB; trimer composition from the classified monomers
[4] = biological target: the molecule itself; assay: cryo-EM structure; single-particle cryo-EM of AcrB or OqxB reconstituted in detergent-free salipro nanodiscs (saposinA, E. coli total lipids), 20 mM Tris pH 7.5, 150 mM NaCl
[5] = biological target: the molecule itself; assay: crystal structure; DDM-solubilised AcrB variants mixed with DARPins 1:2, excess DARPin removed by SEC (20 mM Tris pH 7.5, 150 mM NaCl, 0.03 % DDM); hanging drop, 18 °C; with 2 mM minocycline or apo

## K. pneumoniae OqxB (natural protein)
[1]
  stoichiometry N: 3
[2]
  stoichiometry N: 3

B1: E. coli AcrB V612W (natural protein)
chain: MPNFFIDRPIFAWVIAIIIMLAGGLAILKLPVAQYPTIAPPAVTISASYPGADAKTVQDTVTQVIEQNMNGIDNLMYMSSNSDSTGTVQITLTFESGTDADIAQVQVQNKLQLAMPLLPQEVQQQGVSVEKSSSSFLMVVGVINTDGTMTQEDISDYVAANMKDAISRTSGVGDVQLFGSQYAMRIWMNPNELNKFQLTPVDVITAIKAQNAQVAAGQLGGTPPVKGQQLNASIIAQTRLTSTEEFGKILLKVNQDGSRVLLRDVAKIELGGENYDIIAEFNGQPASGLGIKLATGANALDTAAAIRAELAKMEPFFPSGLKIVYPYDTTPFVKISIHEVVKTLVEAIILVFLVMYLFLQNFRATLIPTIAVPVVLLGTFAVLAAFGFSINTLTMFGMVLAIGLLVDDAIVVVENVERVMAEEGLPPKEATRKSMGQIQGALVGIAMVLSAVFVPMAFFGGSTGAIYRQFSITIVSAMALSVLVALILTPALCATMLKPIAKGDHGEGKKGFFGWFNRMFEKSTHHYTDSVGGILRSTGRYLVLYLIIVVGMAYLFVRLPSSFLPDEDQGVFMTMVQLPAGATQERTQKVLNEVTHYYLTKEKNNVESVFAWNGFGFAGRGQNTGIAFVSLKDWADRPGEENKVEAITMRATRAFSQIKDAMVFAFNLPAIVELGTATGFDFELIDQAGLGHEKLTQARNQLLAEAAKHPDMLTSVRPNGLEDTPQFKIDIDQEKAQALGVSINDINTTLGAAWGGSYVNDFIDRGRVKKVYVMSEAKYRMLPDDIGDWYVRAADGQMVPFSAFSSSRWEYGSPRLERYNGLPSMEILGQAAPGKSTGEAMELMEQLASKLPTGVGYDWTGMSYQERLSGNQAPSLYAISLIVVFLCLAALYESWSIPFSVMLVVPLGVIGALLAATFRGLTNDVYFQVGLLTTIGLSAKNAILIVEFAKDLMDKEGKGLIEATLDAVRMRLRPILMTSLAFILGVMPLVISTGAGSGAQNAVGTGVMGGMVTATVLAIFFVPVFFVVVRRRFSRKNEDIEHSHTVDHH
notes: Homotrimer; source: E. coli C43 (DE3) ∆acrB, purified (Ni-NTA, SEC), DDM-solubilised
[3]
  stoichiometry N: 3

B2: E. coli AcrB V612F (natural protein)
chain: MPNFFIDRPIFAWVIAIIIMLAGGLAILKLPVAQYPTIAPPAVTISASYPGADAKTVQDTVTQVIEQNMNGIDNLMYMSSNSDSTGTVQITLTFESGTDADIAQVQVQNKLQLAMPLLPQEVQQQGVSVEKSSSSFLMVVGVINTDGTMTQEDISDYVAANMKDAISRTSGVGDVQLFGSQYAMRIWMNPNELNKFQLTPVDVITAIKAQNAQVAAGQLGGTPPVKGQQLNASIIAQTRLTSTEEFGKILLKVNQDGSRVLLRDVAKIELGGENYDIIAEFNGQPASGLGIKLATGANALDTAAAIRAELAKMEPFFPSGLKIVYPYDTTPFVKISIHEVVKTLVEAIILVFLVMYLFLQNFRATLIPTIAVPVVLLGTFAVLAAFGFSINTLTMFGMVLAIGLLVDDAIVVVENVERVMAEEGLPPKEATRKSMGQIQGALVGIAMVLSAVFVPMAFFGGSTGAIYRQFSITIVSAMALSVLVALILTPALCATMLKPIAKGDHGEGKKGFFGWFNRMFEKSTHHYTDSVGGILRSTGRYLVLYLIIVVGMAYLFVRLPSSFLPDEDQGVFMTMVQLPAGATQERTQKVLNEVTHYYLTKEKNNVESVFAFNGFGFAGRGQNTGIAFVSLKDWADRPGEENKVEAITMRATRAFSQIKDAMVFAFNLPAIVELGTATGFDFELIDQAGLGHEKLTQARNQLLAEAAKHPDMLTSVRPNGLEDTPQFKIDIDQEKAQALGVSINDINTTLGAAWGGSYVNDFIDRGRVKKVYVMSEAKYRMLPDDIGDWYVRAADGQMVPFSAFSSSRWEYGSPRLERYNGLPSMEILGQAAPGKSTGEAMELMEQLASKLPTGVGYDWTGMSYQERLSGNQAPSLYAISLIVVFLCLAALYESWSIPFSVMLVVPLGVIGALLAATFRGLTNDVYFQVGLLTTIGLSAKNAILIVEFAKDLMDKEGKGLIEATLDAVRMRLRPILMTSLAFILGVMPLVISTGAGSGAQNAVGTGVMGGMVTATVLAIFFVPVFFVVVRRRFSRKNEDIEHSHTVDHH
notes: Homotrimer; source: E. coli C43 (DE3) ∆acrB, purified (Ni-NTA, SEC); DDM-solubilised, in cyclohexyl-n-hexyl-β-D-maltoside (apo crystals) or reconstituted in salipro nanodiscs
[4]
  stoichiometry N: 3

B3: E. coli AcrB V612N (natural protein)
chain: MPNFFIDRPIFAWVIAIIIMLAGGLAILKLPVAQYPTIAPPAVTISASYPGADAKTVQDTVTQVIEQNMNGIDNLMYMSSNSDSTGTVQITLTFESGTDADIAQVQVQNKLQLAMPLLPQEVQQQGVSVEKSSSSFLMVVGVINTDGTMTQEDISDYVAANMKDAISRTSGVGDVQLFGSQYAMRIWMNPNELNKFQLTPVDVITAIKAQNAQVAAGQLGGTPPVKGQQLNASIIAQTRLTSTEEFGKILLKVNQDGSRVLLRDVAKIELGGENYDIIAEFNGQPASGLGIKLATGANALDTAAAIRAELAKMEPFFPSGLKIVYPYDTTPFVKISIHEVVKTLVEAIILVFLVMYLFLQNFRATLIPTIAVPVVLLGTFAVLAAFGFSINTLTMFGMVLAIGLLVDDAIVVVENVERVMAEEGLPPKEATRKSMGQIQGALVGIAMVLSAVFVPMAFFGGSTGAIYRQFSITIVSAMALSVLVALILTPALCATMLKPIAKGDHGEGKKGFFGWFNRMFEKSTHHYTDSVGGILRSTGRYLVLYLIIVVGMAYLFVRLPSSFLPDEDQGVFMTMVQLPAGATQERTQKVLNEVTHYYLTKEKNNVESVFANNGFGFAGRGQNTGIAFVSLKDWADRPGEENKVEAITMRATRAFSQIKDAMVFAFNLPAIVELGTATGFDFELIDQAGLGHEKLTQARNQLLAEAAKHPDMLTSVRPNGLEDTPQFKIDIDQEKAQALGVSINDINTTLGAAWGGSYVNDFIDRGRVKKVYVMSEAKYRMLPDDIGDWYVRAADGQMVPFSAFSSSRWEYGSPRLERYNGLPSMEILGQAAPGKSTGEAMELMEQLASKLPTGVGYDWTGMSYQERLSGNQAPSLYAISLIVVFLCLAALYESWSIPFSVMLVVPLGVIGALLAATFRGLTNDVYFQVGLLTTIGLSAKNAILIVEFAKDLMDKEGKGLIEATLDAVRMRLRPILMTSLAFILGVMPLVISTGAGSGAQNAVGTGVMGGMVTATVLAIFFVPVFFVVVRRRFSRKNEDIEHSHTVDHH
notes: as for B1
[5]
  stoichiometry N: 3
